Assay results reported in patent US20210285024.

Columns and labels:
[1] = tested on: recombinant alpha tubulin produced in bacteria
[2] = tested on: polymerized microtubules (MT)
[3] = tested on: recombinant engineered tyrosinated telokin containing the C-terminal sequence of alpha tubulin
[4] = tested on: 8 amino acid peptide GEEEGEEY (last C-ter alpha-tubulin 1A/1B)
[5] = tested on: tubulin purified from Spodoptera Frugiperda Sf9 cells (fully tyrosinated; used as purified tubulin or polymerised microtubules)
[6] = tested on: bacterially produced recombinant human tubulin alpha-1A chain

Chain of recombinant human Vasohibin-1 (VASH1) (chain, as listed by the source): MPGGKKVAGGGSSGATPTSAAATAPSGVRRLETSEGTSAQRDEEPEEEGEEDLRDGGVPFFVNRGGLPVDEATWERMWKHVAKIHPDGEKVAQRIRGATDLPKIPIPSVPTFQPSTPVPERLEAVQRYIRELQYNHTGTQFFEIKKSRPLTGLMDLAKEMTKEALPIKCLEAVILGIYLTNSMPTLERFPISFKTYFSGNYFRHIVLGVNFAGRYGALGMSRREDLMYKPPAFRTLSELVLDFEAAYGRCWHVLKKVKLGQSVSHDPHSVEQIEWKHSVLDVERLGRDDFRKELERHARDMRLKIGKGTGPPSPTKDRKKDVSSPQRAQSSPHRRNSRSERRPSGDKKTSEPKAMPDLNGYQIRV
Chain of recombinant human Vasohibin-2 (VASH2) (chain, as listed by the source): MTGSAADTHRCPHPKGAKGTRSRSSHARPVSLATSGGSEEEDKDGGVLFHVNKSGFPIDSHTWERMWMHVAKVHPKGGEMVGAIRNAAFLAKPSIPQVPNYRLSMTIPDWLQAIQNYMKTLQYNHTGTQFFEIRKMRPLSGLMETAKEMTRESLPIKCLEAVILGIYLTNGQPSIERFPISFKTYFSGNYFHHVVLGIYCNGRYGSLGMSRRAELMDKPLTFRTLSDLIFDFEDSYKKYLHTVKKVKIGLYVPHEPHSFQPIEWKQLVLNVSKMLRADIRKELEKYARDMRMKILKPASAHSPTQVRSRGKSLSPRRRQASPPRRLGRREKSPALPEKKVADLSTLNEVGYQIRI
Chain of recombinant engineered tyrosinated telokin containing the C-terminal sequence of alpha tubulin (chain, as listed by the source, change not shown): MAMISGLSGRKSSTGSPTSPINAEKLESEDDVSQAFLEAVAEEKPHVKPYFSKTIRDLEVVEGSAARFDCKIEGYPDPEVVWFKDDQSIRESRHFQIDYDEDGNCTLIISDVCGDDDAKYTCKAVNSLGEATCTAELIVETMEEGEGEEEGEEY

Q: Which detyrosination [1] does the source give for recombinant human Vasohibin-1 (VASH1) here?
A: almost inactive on recombinant alpha tubulin produced in bacteria

Q: What about the detyrosination [2] of the same substance?
A: VASH1 was much less effective on microtubules and tubulin dimers

Q: What about the detyrosination (tubulin dimers (TD)) of the same substance?
A: VASH1 was much less effective on microtubules and tubulin dimers

Q: How did the detyrosination activity [3] turn out when recombinant human Vasohibin-2 (VASH2) was run?
A: recombinant VASH2 protein showed detyrosination activity on polymerized microtubule, tubulin dimers, recombinant alpha tubulin, engineered Telokin protein containing C-terminal sequence of alpha tubulin and on synthetic peptides

Q: And the detyrosination [1]?
A: Recombinant human VASH2 produced in bacteria detyrosinates polymerized microtubules (MT), tubulin dimers (TD) and recombinant alpha tubulin

Q: What about the “detyrosination of the peptide (dot blot)” value [4] of the same substance?
A: Recombinant human VASH2 and catalytically dead (VASH2D) produced in bacteria detyrosinates a 8 amino acid peptide consisting of GEEEGEEY

Q: And the “in vitro detyrosination assay (TCPase activity, immunoblot)” value [5]?
A: VASH2 acted as an autonomous enzyme that did not require the small vasohibin binding protein as a chaperone to enzymatically be active

Q: And the detyrosination [2]?
A: Recombinant human VASH2 produced in bacteria detyrosinates polymerized microtubules (MT), tubulin dimers (TD) and recombinant alpha tubulin

Q: What about the “free tyrosine release (tyrosinase colorimetric assay, OD305)” value [6] of the same substance?
A: Release of tyrosine by VASH2 could be observed (Sample D-FIG. 16.)

Q: And the detyrosination (tubulin dimers (TD))?
A: Recombinant human VASH2 produced in bacteria detyrosinates polymerized microtubules (MT), tubulin dimers (TD) and recombinant alpha tubulin
